assay: soluble on expression in E. coli; label from the status in PepcDB or PDB records

Sequence | soluble on expression in E. coli
MEESINQNPEAMEALISNLFGNISSLKSAYIELQSAHTPYDPEKIQAADKVVISELKNLSEMKHFYRENNPKPVCVSPQDSRLAAEIQEQQSLLKTYEVMVKKFQSEIQNKDSEITQMLQKIEEANQKRLKLEKNLKLRGMSTNQGSGGDGNLQFPDLTTELFVSTYEAAAKVVHDFSKPLINMMKAAGWDLDTAANSIEPDVVYAKRPHKEYAFESYICQRMFSGFQQKNFSVNSESATVMADDDTDTFFRQFLALKDMDPLDALDQRDYVTGGGHPRTAFYQAFLKLAKSIWILHKLAYSFDPAAKIFQVKKGSEFSDSYMESVVKNIH | soluble
MGSDKIHHHHHHMRREEMWKLINATIEPIDTETSSSHILSEQDVNESTSGVIFIHTVGVMPVTVNDLIEEGRCARTDLSYADVILASRPVEEERTPVVYLNPDMNDASFYLLENAREIVPADLAKDVLLDRIVRYKRVQRVVDAVIVTDDPHLRRLLERELTKNFETLSLYERAEVFLEQHVATRPYLLVFSSALPRADGLELLLRAKQETIVPFHAIMISMYNRERDHVLAIERGVDGIMTLPLKVEEFRAWVSRLEGVHG | not soluble
SNAMQKSVLEQLKQVTMVVADTGDFELIKKYKPVDATTNPSLILKAVKEQKYSNLVAETISKVKANNPDLNSDDLVKEIAIEILVSFGIKILDVIEGKVSSEVDARVSFNSATTIDYAKRIIARYESNGIPKDRVLIKIAATWEGIKAAKLLQKEGINCNLTLIFDKAQAKACAEAGVYLVSPFVGRITDWQMQQNNLKTFPAIADDDGVNSVKAIYKLYKSHGFKTIVMGASFRNVEQVIALAGCDALTISPVLLEELKNRDEHLEVKLTKNDDVVTQSPQISEADFRWLMNENAMATHKLAEGIRLFTKDTIELENIIKQNL | soluble
MSVEKTCRYLSLFLVASLTGCGFHLRGSETSDGAGQVLFLEKAGSTRVGSRLPDAIRLTGAQLTRNMVDAKGVIRILKETDERRTMSLNLGGRGNLFDLYTRVRYEVTTPQGEIIIPPQEVEVKREYFNNQLSPIGQGEEESLLRSEMERELAETLVRRVLIEMSRNPGGKSLEHHHHHH | soluble
MKRKKPTIHDVAAKAGVGLGTVSRVLNDHPAVRHETRARVLRAMEELGYAPNPHARRIAGGRSYTVSVLLPFVATEFYRRLVEGIEGVLLEQRYDLALFPILSLARLKRYLENTTLAYLTDGLILASYDLTERFEEGRLPTERPVVLVDAQNPRYDSVYLDNRLGGRLAGAYLARFPGPIFAIAVEEEPDRAFRRTVFAERMAGFQEALKEAGRPFSPDRLYITRHSQEGGRLALRHFLEKASPPLNVFAGADQV | soluble
MSASQKEGKLSTATISVDGKSAEMPVLSGTLGPDVIDIRKLPAQLGVFTFDPGYGETAACNSKITFIDGDKGVLLHRGYPIAQLAENASYEEVIYLLLNGELPNKAQYDTFTNTLTNHTLLHEQIRNFFNGFRRDAHPMAILCGTVGALSAFYPDANDIAIPANRDLAAMRLIAKIPTIAAWAYKYTQGEAFIYPRNDLNYAENFLSMMFARMSEPYKVNPVLARAMNRILILHADHEQNASTSTVRLAGSTGANPFACIAAGIAALWGPAHGGANEAVLKMLARIGKKENIPAFIAQVKDKNSGVKLMGFGHRVYKNFDPRAKIMQQTCHEVLTELGIKDDPLLDLAVELEKIALSDDYFVQRKLYPNVDFYSGIILKAMGIPTSMFTVLFAVARTTGWVSQWKEMIEEPGQRISRPRQLYIGAPQRDYVPLAKR | soluble
MSLGESRKHIDYKKGTINLNGVEYPLNDTNFPTINPENPLELLEEEAELLDKLQASFLGSEKLQKHMQLLFAKGGMYLKYNSNLLFHACIPMEPNGEFSKLYVEDGYYKGKALMDKIDNIVRQAYYDRKNVEVNKKHRDFIWYLWAGRLSPLFGKDVMKTFERYFIDDKSTHKEIKNPYHKLINDEKICDKIFEEFGLNPRTSHIINGHIPVKVKEGESPIKANGKLLIIDGGFSRAYQSTTGIAGYTLTYNSYGMKLASHLKFISKEAAIKDGTDMISSHIIVETKSKRMKVKDTDIGKNIQNQINDLKKLLKAYRIGLIKSNEGHHHHHH | not soluble
MGSDKIHHHHHHMKVNTALGILAGKSSQFILKKLGRGTTLPGKIALKFDKHILDSLAKDYEVVVITGTNGKTLTTALTVGILQEAFGEITTNTSGANMITGITATFLSAKKNKKGKKIAVLEIDEASLARVTDFIKPSLIVFTNIFRDQMDRYGEIYTTYQMILDGAAKAPQATILANGDSPLFNSTNVINPVKYYGFATEEHEPRLAHYNTEGVLCPHCHQIIQYKLNTYANLGSYICNNCGFCRPELDYKLTDLKEITNTSSTFAIDGQDYKINIGGLYNIYNALAAVSVAAFFGVTPEKIKAGFDKSKAVFGRQETFKLGDKDCTLVLIKNPVGATQAIEMMKLAPYDFSLSVLLNANYADGIDTSWIWDADFEQITQMDIPQVFAGGVRSSEIARRLRVTGYPENQITETPKLEDIMALIEQSSSQHAYILATYTAMLEFRDLLAQRQAVGKEMK | not soluble
MRNHYMSMYDMRQFFKTYFSSASEKSILVKLLDKRFHPPSHTANILDLGCHDGALMKNIVNAYAKRLPEKLVITGVDPSLQAIKEYAKADFPIPVQTNTFAGTAEDYFDVCTDHFDWIFASQCLYWSPDLPKIIKQIHETGDSALIVIRGCHGIYEIQSQFRHYIGNHLEKFYTDKEVEMALRTQKILFQKESLSTSIRLPDKDSIELKWLILFFLQMEEESLGDKIFCEVRDWITSRTSGSIHHEVHFFWLGNAILQGITI | not soluble
MTDARPRICILGGGFGGLYTALRLGQLSWEGHTPPEIVLVDQRDRFLFAPFLYELVTEEMQTWEIAPPFVELLAESGVIFRQAEVTAIDFDHQKVLLNDQDKGTESLAFDQLVIALGGQTPLPNLPGLKDYGLGFRTLEDAYKLKQKLKSLEQADAEKIRIAIVGGGYSGVELAAKLGDRLGERGRIRIIERGKEILAMSPEFNRQQAQASLSAKGIWVDTETTVTAITATDVTLQFREQEDVIPVDLVLWTVGTTVSPLIRNLALPHNDQGQLRTNAQLQVEGKTNIFALGDGAEGRDASGQLIPTTAQGAFQQTDYCAWNIWANLTGRPLLPCRYQPLGEMLALGTDGAVLSGLGIKLSGPAALLARRLVYLYRFPTWQHQLTVGLNWLTRPLGDWLKNEPSLEHHHHHH | not soluble
MTDEVILANATLVLRGETVTGSLHIKGETIAGIDQGAHVPAGAVDCEGDFVSPGLVELHTDNLERHIQPRPKVDWPHAAAILAHDAELAGTGITTVFDAMRVGSIPSGAGRYLQYARNLSRELWQLREASALKISHFLHLRAEVCSETLVEELDEFAPEDRVGLVSLMDHTPGQRQFRDMTKLEAYMKGKHAMSDDTFLQHVSQLKGLRDRYGDRHEIETVKAARRLGSVLASHDDTTAEQVAVSAGHGIRLAEFPTTIEAAEACHAHGIKVIMGAPNLIRGGSHSGNVAAADLAERGLLDILSSDYVPSALLLSAVRLGALWGDMARGMATVTRTPAQAVGLDDRGEIAPGLRADLIRFRMSQDVPALQSVWSRGRRVA | not soluble
MTTVTVTTEVPSSGKTEDGHVFCDSSSAHIIEETEYVRQMRTTLEKIRNHMFKEKEGCGNARHKLDAEGSGNIQNGSDSTTDPTCLDLLMENMRRKDQQLLEMNRENEVLQIKLEASREAGAAALRNVAQRLFDNYQTQAGDLEKKHEGRKHLLQVNNLEKEQALKGSAESLNLLSEKLEEKHGQIVGLENRVQRMENNKELKTRVAHWTETPRTLVSKAVSTSELKTEGASPYLMLIRLRK | not soluble
MSGKEEFQTIKERAKRKLERDMGADLLAALNDPKTVEVMLNADGKVWHERLGEPMRYICDMRPSQSQAIIETVAGFHGKEVTRHSPILEGEFPLDGSRFAGQLPPVVAAPTFAIRKRAVAIFTLEQYVEAGIMTREQYEVIKSAVAAHRNILVIGGTGSGKTTLVNAIINEMVAFNPSERVVIIEDTGEIQCAAENAVQYHTSIDVSMTLLLKTTLRMRPDRILVGEVRGPEALDLLMAWNTGHEGGAATLHANNPKAGLSRLAMLISMHPDSPKPIEPLIGEAVHVVVHIARTPSGRRVQEILEVLGYENGQYITKTL | not soluble
MGSDKIHHHHHHMGVQETKIYPINTGWLEADLGTYIFWKGPAGQKIWNPVYCHYVDTGTHKILIDTGLCDEERATKYHHKCDKRGCLQVHEHLEQKLGVHPDEIDAVVFTHLHWDHVQNMKEFKNARYIAPKAEIEMAFNPLPLYYRTYESGYLGIEPAYTGCVFEAVEDECEVLPGITMFHTPGHSVGHMAVTVATSAGDIVVAGDAIFQERNMEPNEAEGWRYWVPARFVNSYEGWKSVEELDKRADYILACHDKVANARSNVFPYEGMPIRKRRQHIPGFKFYFGDMPAGATDKAAPALTADEAKEYLANLVPPTPD | not soluble
MEPPSPVGNPEIPSEIPKNAEKTVYKYIDEQGIEIFIEDPIYVEENGNTMVYGNPYDPTTSSQEIYEEEIVDEEYIFQVDSLPSTSSSSAAAPPPSKRARLIKDGVAYPSNTVLLTNQSLEAKNATFLAKAGARREEKEPKKQIPMINKHGSILNRNLPGMTNMFKVMAESALAKTDEMIKQEAMNNTVEEVEKGRKLDNSSRFGLENEESDQDGQSDTPPPMERLGEADDFQPTTTTFDQWPLYSNRAIDFKGFSTYQKKNYFENWKILSSFKKVFSKNFQFLAKILKFISMRDPHRNSRNRRGKNIPSGKTRFYTETADGNLIRADDGKGRLKQWTKEFTYKIILKKYDNQVTRGGDEGRGQFQRKIYTGFKGAGRLPFSIVTYSWHAGRPWNFVPPVTSRQTVRRPNWEKKSYEKVNMTSMPQMVSAYYEGFNIYSHCIVSFDEATAIMLGATPIDTNKLVIIIVAGPKISRNFPIFRLCSSVPLGYRQNGTFVIDLKRMGHCLLELRRDDNGIWNKPSGFSRFYKISENGDAIRVDKAGKLPAGMDYDVKIASKRYEHTQVQKNFVRKIYTAKGKNSESFPGSPEYAVIVYYWKGEPIQFEPAFKQNGVRTESKEYSRYQQIADEEQEFVEATGSMDPVVENLQKNLAPSPPPLLKRVTFPPEPQQSTSSTSAENLHELKLQLIRREMQNQDRFSAVLDRADGLLARMEQRFGVEHHHHIVHQEQEEEVWDHEQIIEEEEVIVQDTMEY | not soluble
SKKVYAFDVQEQALGKTSQRLSDLGIENTELILDGHENLDHYVREPIRAAIFNLGYLPSADKSVITKPHTTLEAIEKILDRLEVGGRLAIMIYYGHDGGDMEKDAVLEYVIGLDQRVFTAMLYQPLNQINTPPFLVMLEKLQ | not soluble
MSLGMKSNEYNKGNYEAHKAYYAGTYEYGTDYDVEDDLYSLEFDDELLNDELEYLEDIGEPFYYEDLDNDFDNTLENQVEKDTYAALENKLRKYISKYNCYFGIYFVDLESGKEFGINDTEEFFAASTFKIPLNLYVYDMIRKGMLDPMTSLEYTEEDFEGGTGIIWNNESFGKTFTIKELLRLSIVYSDNVAVNMLLRCVGKANVKEYMRRLGGVVVDDGKNVSCPRDMAMYLKEVYELSENGDPWGRELVQNMINTKFYDRLPVLLPKNLKIAHKTGNYTGVVHDVGIVYAEKPYIVVVMTKNVKNGQSANKAIANISKMIYDYVVKQSGKDEGHHHHHH | soluble
MSKKKGLSAEEKRTRMMEIFSETKDVFQLKDLEKIAPKEKGITAMSVKEVLQSLVDDGMVDCERIGTSNYYWAFPSKALHARKHKLEVLESQLSEGSQKHASLQKSIEKAKIGRCETEERTRLAKELSSLRDQREQLKAEVEKYKDCDPQVVEEIRQANKVAKEAANRWTDNIFAIKSWAKRKFGFEENKIDRTFGIPEDFDYID | soluble
QGRYTTDDGYIFNASDIIEDTGDAYIVPHGDHYHYIPKNELSASELAAAEAFLSG | soluble
